Earlier results on two substances are cited in paper PMC9240770.

For the data set, the target named is TREM-1 (Mus musculus) (UniProt Q9JKE2). Kind of data set: SPR. For orientation: Surface plasmon resonance follows binding to a sensor surface in real time, without labels.
Sequence of UniProt Q9JKE2 (Q9JKE2 21-230): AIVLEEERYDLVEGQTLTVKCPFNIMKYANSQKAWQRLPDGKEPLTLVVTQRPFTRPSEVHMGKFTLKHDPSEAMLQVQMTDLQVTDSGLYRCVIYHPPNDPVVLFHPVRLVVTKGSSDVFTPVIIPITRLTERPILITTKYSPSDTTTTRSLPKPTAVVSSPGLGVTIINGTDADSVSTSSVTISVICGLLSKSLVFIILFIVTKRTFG

For the substance CIRP (from UniProt P60824), the Kd (usually the concentration at which binding is half-saturated) was 0.117 µM. For HMGB1 (from UniProt P63158), the Kd is 35.4 µM.
